In the experiment the target is T1, human cancer-specific MUC1 (human, UniProt P15941 24-1255).
T1 construct: whole, on cells; Endogenous MUC1 with cancer-specific incomplete O-glycosylation on cancer cells; also called Mucin 1; human MUC1
Put plainly: Cell ELISA on formalin-fixed T-47D cells, HRP anti-human Ig kappa, luminescence. As for the experimental part:
Specifically, breast cancer cell line T-47D cells (purchasable from ATCC; HTB-133) expressing human cancer-specific MUC1 were inoculated at 0.75×10⁴ cells per well to a 96-well ELISA plate coated with collagen I, and cultured overnight. […] Then, a horseradish peroxidase (HRP)-labeled goat anti-human Igκ antibody (Southern Biotechnology Associates, Inc.) was reacted as a secondary antibody. ECL Prime Western Blotting Detection Reagent (GE Healthcare Japan Corp.) was added thereto for luminescence, and the degree of the luminescence was examined.

Bounds are passed on as bounds.

B1: P10-2 Fab (Fab, V domains shown)
VH: QVQLVQSGAEVKKPGASVKVSCKASGYTFTNYGLSWVRQAPGQGLEWMGENHPGSGIIYHNEKFRGRVTLTADRSTSTAYMELSSLRSEDTAVYYCARSSGTRGFDYWGQGTLVTVSS
VL: DVVMTQTPLSLSVTPGQPASISCRSSQSIVHSNGNTYLEWYLQKPGQSPQLLIYRVSNRFSGVPDRFSGSGSGTDFTLKISRVEAEDVGVYYCFQGSHGPWTFGQGTKLEIKR
modifications: heavy chain N-terminal glutamine modified into pyroglutamic acid in a great majority of purified antibodies
notes: expressed in Expi293F cells, purified on KappaSelect; also called anti-human MUC1 antibody Fab fragment P10-2
For B1, the “binding activity relative to 1B2 Fab” value is not below 10 times.

B2: P10-1 Fab (Fab, V domains shown)
VH: QVQLVQSGAEVKKPGASVKVSCKASGYTFTNYGLSWVRQAPGQGLEWMGENHPGSGIIYHNEKFRGRVTLTADRSTSTAYMELSSLRSEDTAVYYCARSSGTRGFAYWGQGTLVTVSS
VL: DVVMTQTPLSLSVTPGQPASISCRSSQSIVHSNGNTYLEWYLQKPGQSPQLLIYRVSNRFSGVPDRFSGSGSGTDFTLKISRVEAEDVGVYYCFQGSHGPWTFGQGTKLEIKR
notes: expressed in Expi293F cells, purified on KappaSelect; also called anti-human MUC1 antibody Fab fragment P10-1
B2: the “binding activity relative to 1B2 Fab” value was not below 10 times.

Source of the values: US20200171174A1 (Astellas, published 2020).
